The nanobody polyreactivity screen of Harvey et al. (2022)

Assay: yeast display, Sf9 membrane polyspecificity reagent, FACS + sequencing; frameworks hold sequencing errors
How it was run: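 Polyreactivity labels are assigned by the sorting gate from which each nanobody was recovered. The gates were low and high (top ~1%), set on anti-HA fluorescence for expression and streptavidin fluorescence for reagent binding. Before sorting, galactose-induced (36–48 hours) yeast display cells were stained for 1 hour at 4 °C with 10% biotinylated, detergent-solubilized Sf9 membrane reagent.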

Sequence | polyreactivity (PSR sort gate)
QIQLVESGGGLVQAGGSLRLSCSASGSISGYYSRRWYRQAPGKQSEFVASIRYTGARTYYADSVKGRFTISLDNAKNTVYLQMNSLIAEDTAVYFWAADVKRDSVWGGDYWGQGNQVTVSS | low polyreactivity
QVHLVESVGGLVQAGGSLRLSCAASGRTFGGYAMGWYRQAHGKERELVAAIRRSGGSTYYADSVKGRFTISRDNAKNTVYLQMNSVKPEDTAVYYCAASGIYNVRMYYWGQGTLVTVSS | high polyreactivity
QVQLVESGGGLVQAGGSLRLSCAASGLIFNTYAMGWYRQARGKERELVAAITDGGGTNYADSVKGRFTISRDNAKNTVYLQMNSLKPEDTAVYYCAARLASWPLTYDFQWYEYWGQGTQVTVSS | low polyreactivity
QVQLVESGGGLVQAGGILSLSCAASGRIFPDNTMGWYRQAPGKQRELVAVITYSGGSTYYADSVKGRFTISRDNAKNTVYLQMNSLNPEDTAVYYCAARDFYIWFAEVDYWGQGTLVTVSS | low polyreactivity
QVQLVESGGGLVQAGGSLRLSCAASGRIFYTYAMGWYRQAPGKERELVSSITWSDGNTYYADSVKGRFTISRDNAKNTDYLQMNSLKPEDTAVYYCAAGDSFYVYLWPTYDYWGQGTQVTVSS | low polyreactivity
QVQLVESGGGLVQAGGSLRLSCAASGSTFNRYAMGWYRQAPGKERELVAAITSTGGTNYADSVKGRFTISLDNAKNTVYLQMNSLKPEDTAVYYCAKRWLRWRSNYWGQGTQVTVSS | high polyreactivity
QVQLVESGGGLVQAGGSLRLSCAASGLTIYHYAMGWYRQAPGKERELVAAISWNGGSTYYADSVKGRFTISRDNAKNTVYLQMNSLKPEDTAVYYCAVVFNPHRYTGVLAGYDYWGQGTQVTVSS | high polyreactivity
QVQLVESGGGLVQAGGSLRLSCAASGRTFPYYDKGWYRQAPGKERELVATISWSGGTTYADSVKGRFTISRDNAKNTVYLQMNSLKPEDTAVYFCAAVSYVYRYYWGQGTQVTVSS | low polyreactivity
QVQLVESGGGLVQAGGSLRLSCAASGFTFDANAMGWYRQAPGKERELVAAITRVGSTFYADSVKGRFTISRDNAKNTVYLQMNSLKPEDTAVYYCNAARDHVSGYDYWGQGTQVTVSS | low polyreactivity
QDQLVESGGGLVQAGGSLRLSCAASGFTFSHNVMGWSRQAPGKERELVAAITWSGDGTYYADSVKGRFTISRDNAKKSVYFQMNSLKTEDTAVYYCNARYGKEYDYWGQGTQVTVSS | low polyreactivity
QVHLVESGGGLVQAGGSLRLSCAASGSIFFVNAMGWYRQAPGKERELVADISSGGSTNYADSVKGRFTISRDNAKNTVYLQMNSLKPEDTAVYYCNTDEPPIYERFPYDYWGQGTQVTVSS | low polyreactivity
QVQLGESGGGLVQAGGSLRLSFAASGRISKRNDRGWSRQAPGKERELVAGITSTGSTSYAHSVKGRFTISRDNAKKTVYLQMNSLKPEDTAVYYCAARGQATYNWGQGTQVTVSS | high polyreactivity
QVQLVESGGGLVQAGGSLRLSCAASGRTIRTYTMGWYRQAAGKERELVAAISWSGSSTYYADSVKGRFTISRDNAKNTVYLQMNSLKPEDTAVYYCAARGLYDYGYWGQGTQVTVSS | high polyreactivity
QVQLVESGGGLVQAGGSLRLSCAASGSIFVTNAMGWYRQEPGKERELVAAISVSGGSTFYADSVKGRFTISRDNAKNTVYLQMNSLKPEDTAVYYCNTVRSPPGHDYWGQGTQVTVSS | low polyreactivity
QVQLVESGGGLVQAGGSLRLSCAASGGTFPLYAMGWYRQAPGKERELVAAIRWSGGRTYYADSVKGRFTISRDNAKNTVYLQMNSLKPEDTAVYYCAADYDDGWGYDYWGQGTQVTVSS | high polyreactivity
QVQLVESGAGLVQAGGSLRLSCAASGRIFPDNTMGWYRQAHGKERELVAVITYSGGSTYYADSVKGRFTISRDNAKNTVYLQMNSLKPEDTAVYYCAADFGFQLKMYYWGQGTQVTVSS | low polyreactivity
QVQLVESGGGLVQAGGSLRLSCAASGFTFYWYTMAWNRQAPGKERELVAAISRRGGSTSYADSVKGRFTISRDNAKNTVYLQMNSLKPDDTAVYYCAKTPGWTDYDYWGQGTQVTVSS | high polyreactivity
